Measurements reported in PMC5368172.

Legend:
[1] = target: SCM on the surface of S. canis strain G361 (Streptococcus canis (endogenous in strain G361)); assay: radioligand binding; iodinated IgG or iodinated plasminogen incubated with whole S. canis bacteria, gamma-counting, percent bound; inhibition with 1.0 μM non-labeled IgG or plasminogen
[2] = target: HRP-conjugated human IgG (human); assay: ELISA; competitive: wells coated with 5 μg full length SCM; HRP-conjugated human IgG (1:200) pre-incubated 15 min with 10 μg SCM, FOG or KO173225, then added for 2 h

human plasminogen (natural protein)
percent bound [1]: 37.1% | percent bound with excess non-radiolabeled plasminogen [1]: 23.3%

recombinant SCM, the M protein of Streptococcus canis (natural protein)
IgG binding to immobilized SCM left after pre-incubation of IgG with 10 μg SCM, percent [2]: 20%
